This data set concerns the molecule itself. In words: crystal structure.

The results in this text go back to publication PMC11415531 (Synthetic and Systems Biotechnology, 2024).

B1: S-adenosyl-L-methionine-dependent methyltransferase RdmB from Streptomyces purpurascens (enzyme)
chain: MSSSSPGEPLEPTDQDLDVLLKNLGNLVTPMALRVAATLRLVDHLLAGADTLAGLADRTDTHPQALSRLVRHLTVVGVLEGGEKQGRPLRPTRLGMLLADGHPAQQRAWLDLNGAVSHADLAFTGLLDVVRTGRPAYAGRYGRPFWEDLSADVALADSFDALMSCDEDLAYEAPADAYDWSAVRHVLDVGGGNGGMLAAIALRAPHLRGTLVELAGPAERARRRFADAGLADRVTVAEGDFFKPLPVTADVVLLSFVLLNWSDEDALTILRGCVRALEPGGRLLVLDRADVEGDGADRFFSTLLDLRMLTFMGGRVRTRDEVVDLAGSAGLALASERTSGSTTLPFDFSILEFTAVSEEAAPAAQASEALPAQE
For B1, the binding result is listed as “binds”.
